Laboratory results as given in patent JP2016528193A (dated 2016).

How the values were obtained:
ヒトPCSK9(野生型) [1] = target: ヒトPCSK9(野生型) (human); assay: Biacore at pH 6.0 (HBS-P with 0.01 % BSA), fitted from competition curves, n=1
ヒトPCSK9(野生型) [2] = target: ヒトPCSK9(野生型) (human); assay: KinExA solution equilibrium, PCSK9-coated beads

B1: 31H4 (antibody, V domains shown)
VH: EVQLVESGGGLVKPGGSLRLSCAASGFTFSSYSMNWVRQAPGKGLEWVSSISSSSSYISYADSVKGRFTISRDNAKNSLYLQMNSLRAEDTAVYFCARDYDFWSAYYDAFDVWGQGTMVTVSS
VL: QSVLTQPPSVSGAPGQRVTISCTGSSSNIGAGYDVHWYQQLPGTAPKLLISGNSNRPSGVPDRFSGSKSGTSASLAITGLQAEDEADYYCQSYDSSLSGSVFGGGTKLTVLQ
For B1, the Kd (ヒトPCSK9(野生型) [1]) was 0.0125 nM and the Kd (ヒトPCSK9(野生型) [2]) was 0.003 nM.

B2: 16F12 (antibody, V domains shown)
VH: QVHLVESGGGVVQPGRSLRLSCAASGFTFNSFGMHWVRQAPGKGLEWVALIWSDGSDEYYADSVKGRFTISRDNSKNTLYLQMNSLRAEDTAVYYCARAIAALYYYYGMDVWGQGTTVTVSS
VL: QSVLTQPPSVSAAPGQKVTISCSGSSSNIGNNFVSWYQQLPGTAPKLLIYDYNKRPSGIPDRFSGSKSGTSATLGITGLQTGDEADYYCGTWDSSLSAYVFGTGTRVTVLQ
B2 showed a Kd (ヒトPCSK9(野生型) [1]) of 0.029 nM and a Kd (ヒトPCSK9(野生型) [2]) of 0.015 nM.
